What all share (assay): europium-labelled ligand saturation binding on cells (time-resolved fluorescence); HEK293T cells transiently transfected with receptor, 96-well plates; increasing Eu-H2 relaxin (maximum 15 nM) with or without 1 μM unlabelled H2 relaxin, 1 h, room temperature; 20 mM HEPES pH 7.5, […] CaCl2, 50 mM NaCl, 0.01% NaN3, 1% BSA; one-site fit
The target in test [1] is RXFP1 A55L, full length (human).
Test [2] addresses RXFP1 A55S, full length (human).
Test [3] has as its target T1, RXFP1 D51A, full length (human).
T1 sequence (Q9HBX9 1-757 with D51A, looked up): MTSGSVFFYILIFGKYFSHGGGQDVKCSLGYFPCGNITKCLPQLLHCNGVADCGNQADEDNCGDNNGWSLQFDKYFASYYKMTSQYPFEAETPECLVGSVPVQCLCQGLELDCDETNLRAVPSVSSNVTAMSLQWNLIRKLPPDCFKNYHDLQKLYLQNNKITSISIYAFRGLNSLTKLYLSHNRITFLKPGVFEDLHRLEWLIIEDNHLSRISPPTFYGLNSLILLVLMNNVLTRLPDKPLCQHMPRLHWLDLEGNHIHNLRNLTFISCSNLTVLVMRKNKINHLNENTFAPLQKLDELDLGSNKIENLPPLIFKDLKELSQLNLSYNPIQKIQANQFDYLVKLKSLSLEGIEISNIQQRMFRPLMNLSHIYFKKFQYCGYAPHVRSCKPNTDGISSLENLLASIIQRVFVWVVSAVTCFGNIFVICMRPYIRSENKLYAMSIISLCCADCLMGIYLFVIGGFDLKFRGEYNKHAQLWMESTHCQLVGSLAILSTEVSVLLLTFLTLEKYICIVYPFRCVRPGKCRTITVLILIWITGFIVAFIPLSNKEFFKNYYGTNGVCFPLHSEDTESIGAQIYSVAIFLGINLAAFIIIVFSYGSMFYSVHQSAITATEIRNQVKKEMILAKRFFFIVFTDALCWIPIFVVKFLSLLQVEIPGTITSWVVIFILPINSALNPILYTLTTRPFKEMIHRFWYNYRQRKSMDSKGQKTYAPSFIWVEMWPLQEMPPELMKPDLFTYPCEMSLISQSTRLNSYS

The target in test [4] is RXFP1 F54A, full length (human).
Test [5] has as its target RXFP1 G41A, full length (human).
Test [6] has as its target RXFP1 N43A/N44A, full length (human).
Test [7] has as its target RXFP1 N44A, full length (human).
Test [8] deals with RXFP1 Q49A/F50A, full length (human).
The target in test [9] is RXFP1 S47A/L48A, full length (human).
Test [10] concerns the target RXFP1 W46A, full length (human).
Test [11] concerns the target RXFP1 Y57A, full length (human).
Test [12] deals with RXFP1 Y58A, full length (human).

Where no end group is shown, it is not given here. The star is where a group is joined. DTPA = O=C(O)CN(CCN(CC(=O)O)CC(=O)O)CCN(CC(=O)O)CC(=O)*

B1: Europium-labelled H2 relaxin (ligand, human)
chain 1: {DTPA}-QLYSALANKCCHVGCTKRSLARFC
chain 2: DSWMEEVIKLCGRELVRAQIAICGMSTWS
modifications: not fully specified; ends and bridges not checked; also: DTPA cage loaded with Eu^3+
notes: A chain of human gene-2 (H2) relaxin; numbers count on: the A chain; B chain of human gene-2 (H2) relaxin; numbers count on: the B chain; also called Eu-H2 relaxin; Eu-H2
One may read the Kd as the free concentration of one partner at which half of the binding sites on the other are occupied at equilibrium, for simple one-to-one binding. Regarding B1, the Kd in test [1] was 1.54 nM; in [2], 0.8 nM; in [3], 0.73 nM; in test [4], 2.43 nM; in [5] it was 0.95 nM; in [6] it was 3.28 nM. Moreover, the Kd in test [7] came out at 0.81 nM; in [8], 6.74 nM; in [9], 0.43 nM; in [10] it was 12.3 nM; in test [11], 0.81 nM; in test [12], 1.56 nM.

The values are drawn from publication PMC4837482, “The complex binding mode of the peptide hormone H2 relaxin to its receptor RXFP1” (Nature Communications, 2016).
